In patent US20240124575A1 (SIMCERE ZAIMING PHARMACEUTICAL, published 2024):

B1: C33B904 hIgG1 (antibody, V domains shown)
VH: EVQLVESGGGLVQPGRSLRLSCAASGFTFDDYAMHWVRQAPGKGLEWVSGIGWSGGSIVYADSVKGRFTISRDNAKNSLYLQMNSLRAEDTALYYCAKDSPYGDFFDYWGQGTLVTVSS
VL: DIVMTQSPDSLAVSLGERATINCKSSQTVFYSSNNKNYLAWYQQKPGQPPKLLISWASTRKSGVPDRFSGSGSGTDFTLTVSSLQAEDVAVYYCQHYYSTPYTFGQGTKLEIKR
notes: intact human IgG1; variable regions from US20190382481A1; also called C33B3904; C331B904
B2: C33B904 (antibody, human IgG1, kappa, V domains shown)
VH: B1 VH
VL: B1 VL
notes: control antibody, intact human IgG1 form; variable regions from US20190382481A1; also called C33B904 hIgG1; C331B904

Columns and labels:
[1] = biological target: T1, human CD33-His (extracellular domain Asp 18-His 259) (human, UniProt P20138 18-259); assay: ELISA, antigen coated
T1 construct: range 18-259; bought protein; also called hCD33-his; human CD33 protein; not shown: His tag
T1 sequence (P20138 18-259 limits assumed): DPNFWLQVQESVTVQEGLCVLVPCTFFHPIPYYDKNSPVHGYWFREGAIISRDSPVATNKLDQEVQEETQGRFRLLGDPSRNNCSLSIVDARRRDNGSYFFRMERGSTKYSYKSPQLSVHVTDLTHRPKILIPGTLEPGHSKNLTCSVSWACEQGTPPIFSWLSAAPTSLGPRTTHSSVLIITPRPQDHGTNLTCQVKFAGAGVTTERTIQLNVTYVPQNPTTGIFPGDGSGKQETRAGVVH
Procedure: In order to assay the binding activity of VHH-Fc to human CD33 protein, a human CD33-his protein (purchased from ACROBiosystems, Cat. No. CD3-H5226) was diluted with PBS to make a final concentration of 2 μg/mL, and then added into a 96-well ELISA plate at 100 μL/well. The plate was sealed with a plastic film and incubated at 4° C. overnight, washed twice with PBS the next day, and a blocking solution [PBS+2% (w/w) BSA] was added for blocking at room temperature for 2 h. The blocking solution was discarded, and VHH-Fc antibody or negative control antibody serially diluted from 100 nM was added at 50 μL/well. After incubation at 37° C. for 2 h, the plate was washed 3 times with PBS. A secondary antibody labeled with HRP (horseradish peroxidase) (purchased from Sigma, Cat. No. A0170) was added. After incubation for 1 h at 37° C., the plate was washed 5 times with PBS. A TMB substrate was added at 50 μL/well. After incubation at room temperature for 10 min, a stop solution (1.0 N HCl) was added at 50 μL/well. The OD450 nm values were read on an ELISA plate reader (Multimode Plate Reader, EnSight, purchased from Perkin Elmer). The assay results for the binding of the VHH-Fc to hCD33-his by ELISA are shown in FIGS. 7A and 7B and Tables 11 and 12. […] The IgG control was hIgG1, and the data in the table are OD450 nm values.

monkey CD33-His protein [2] = biological target: T2, monkey CD33-His protein (monkey); assay: ELISA on coated monkey CD33-his
T2 construct: also called monkey CD33 protein

human CD33-C2-his = biological target: T3, human CD33-C2-his (human, UniProt P20138 136-260); assay: ELISA on coated human CD33-C2-his
T3 construct: expressed in HEK293E; also called hCD33-C2-his; human CD33 protein C2-domain; not shown: His tag
T3 sequence (P20138 other isoform, or with tags, fused parts or gaps limits assumed): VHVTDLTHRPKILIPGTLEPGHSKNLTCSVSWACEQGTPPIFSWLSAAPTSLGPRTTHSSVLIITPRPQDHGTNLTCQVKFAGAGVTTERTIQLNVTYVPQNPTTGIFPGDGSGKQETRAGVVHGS
Text: Plates were coated with human CD33-V-his (membrane distal end) and human CD33-C2-his (membrane proximal end), respectively, according to the ELISA method in Example 8. The VHH humanized antibodies were classified based on the membrane distal end and the membrane proximal end, as shown in FIGS. 20A-20J and Table 44, which allowed the classification of the VHH humanized antibodies into the following classes: […]

[3] = biological target: T1, human CD33-His (extracellular domain …); assay: competitive ELISA vs coated S006-NB146-132 2ug/mL; soluble 25ug/ml
Procedure: VHH antibodies and control antibodies with known epitopes were subjected to epitope classification with competitive ELISA. ELISA plates were coated with 2 μg/mL antibodies according to the method in Example 5.1; the human CD33-his protein was subjected to a gradient dilution from 30 μg/mL, and EC80 values (Tables 26-27) were calculated. ELISA plates were coated with 2 μg/mL antibodies; after 25 µg/mL of antibodies to be tested were added, a human CD33-his protein having an EC80 concentration corresponding to each of the antibodies to be tested was then added for incubation for 2 h. The plates were washed 5 times with PBS, then HRP-labeled anti-His antibodies (purchased from GenScript, Cat. No. A00612) were added for incubation for 1 h, and the plates were washed 5 times. A TMB substrate was added at 50 μL/well and incubated at room temperature for 10 min, then a stop solution (1.0 M HCl) was added at 50 μL/well. OD_{450 nm} values were read using an ELISA plate reader (Insight, purchased from PerkinElmer), and the competition rate between the antibodies was calculated according to the OD_{450 nm} values using a formula. The results are shown in FIGS. 12A-12B, the higher the value of the competition rate, the closer the epitopes to which two antibodies bind.

[4] = biological target: T1, human CD33-His (extracellular domain …); assay: competitive ELISA vs coated S006-NB146-150 3ug/mL; soluble 25ug/ml
monkey CD33-his protein [5] = biological target: T4, monkey CD33-his protein (monkey); assay: SPR (Biacore), antibody captured on Protein A chip, monkey CD33 analyte
T4 construct: bought protein; also called monkey CD33 protein (Sino Biological, Cat. No. 50712-M08H)

human CD33-his protein [6] = biological target: T5, human CD33-his protein (human, UniProt P20138 18-259); assay: competition ELISA, coated human CD33-his, vs Biotin-C33B904 at EC80; antibody 250.00 nM
T5 construct: range 18-259; bought protein; also called hCD33-his; recombinant human CD33-his; not shown: His tag
T5 sequence (P20138 18-259 limits assumed): as the sequence (P20138 18-259 limits assumed) above
Procedure: (§1) ELISA plates were coated with 2 μg/mL human CD33-his protein according to the method in Example 5.1; the Biotin-C331B904 antibody was subjected to a gradient dilution from 15 μg/mL, and EC80 values (0.18 μg/mL) were calculated. ELISA plates were coated with 2 μg/mL human CD33-his protein; starting from 40 μg/mL, the VHH antibodies to be tested were diluted in a 1:2 dilution ratio to obtain seven concentrations and added to the ELISA plates, and then Biotin-C331904 antibodies with the EC80 concentrations were added for incubation for 2 h. The plates were washed 5 times with PBS and then […] (purchased from Sigma, Cat. No. S2438) were added for incubation for 1 h, and the plates were washed 5 times. A TMB substrate was added at 50 μL/well and incubated at room temperature for 10 min, then a stop solution (1.0 M HCl) was added at 50 μL/well. OD_{450 nm} values were read using an ELISA plate reader (Insight, purchased from PerkinElmer). Then, analysis was performed by software (GraphPad Prism8), and data were fitted for curve plotting. The results are shown in FIGS. 13A-13B and Tables 28 and 29.

human CD33-his protein [7] = biological target: T5, human CD33-his protein; assay: competition ELISA, coated human CD33-his, vs Biotin-C33B904 at EC80; antibody 0 nM (no competitor)
Procedure: as §1

Binder	OD450 at 0.0001 nM [1] [OD450]	OD450 at 0.001 nM [1] [OD450]	OD450 at 0.01 nM [1] [OD450]	OD450 at 0.1 nM [1] [OD450]	OD450 at 1 nM [1] [OD450]	OD450 at 10 nM [1] [OD450]	OD450 at 100 nM [1] [OD450]	EC50 (read off the curve) (monkey CD33-His protein [2]) [nM]	EC50 (read off the curve) (human CD33-C2-his) [nM]	inhibition rate [3] [%]	inhibition rate [4] [%]	Kd (monkey CD33-his protein [5]) [nM]	koff (monkey CD33-his protein [5]) [s⁻¹]	kon (monkey CD33-his protein [5]) [M⁻¹ s⁻¹]	OD450 (Biotin-C33B904 signal) (human CD33-his protein [6])	OD450 (Biotin-C33B904 signal) (human CD33-his protein [7])
B1	0.04	0.06	0.08	0.28	1.39	2.6	2.96	~0.1	~0.1	98	100					
B2												0.565	0.000626	1.11e+06	0.1	2.33
